Data from patent US8247535B2, “Directed evolution of GRG31 EPSP synthase enzyme” (Athenix Corp., priority 2008, dated 2012).

Tests used:
GRG31 EPSP synthase [1] = assay: Thermostability of purified GRG31 variant proteins (4 hrs at 37° C.); assay type: biochemical; conditions: in words
Description: GRG31 variants L3P2b11, L3P2c11 and L4e11, and L5e3 were characterized by enzymatic assays as described herein, and compared to the native GRG31 enzyme. For each enzyme the apparent Km (Km(app)) was determined at each of several glyphosate concentrations, and a plot of Km(app) vs. glyphosate concentration was used to calculate the Ki for each enzyme. […]
Three variants (6b2, 6e7, and the triple EK (N95S A206V E215K; SEQ ID NO:20)) were grown, their proteins purified, and the thermostability of the proteins analyzed in more detail.

GRG31 EPSP synthase [2] = assay: Thermostability of extracts of GRG31 point mutants at 37° C.; assay type: biochemical; conditions: for thermostability of extracts of error prone PCR clones: extracts of 95 clones, in words
Description: To improve the thermostability of GRG31, error prone PCR mutagenesis of GRG31 was performed. Forty-five thousand (45,000) clones were plated onto 50 mM glyphosate, and ninety-five (95) clones were picked.
To further investigate the contributions of various substitutions in these positions, several point mutations were generated at positions corresponding to amino acid positions 95, 206, and 215 of GRG31. Extracts of point mutants were tested for thermostability at 37° C.: […]

GRG31 EPSP synthase [3] = assay: Kinetic analysis of GRG31 variants (Ki for glyphosate, Km for PEP, Vmax); assay type: biochemical; set-up: Vmax: unit not given here; conditions: for Ki: Ki for glyphosate, calculated from plot of Km(app) vs. glyphosate concentration; for Km: Km for PEP; for Vmax: unit not given
Description: GRG31 variants L3P2b11, L3P2c11 and L4e11, and L5e3 were characterized by enzymatic assays as described herein, and compared to the native GRG31 enzyme. For each enzyme the apparent Km (Km(app)) was determined at each of several glyphosate concentrations, and a plot of Km(app) vs. glyphosate concentration was used to calculate the Ki for each enzyme. The thermostability for each enzyme was assessed by incubating the enzyme at 37° C. for 16 hours, and then quantifying the enzymatic activity remaining (as Vmax) vs. control enzyme that was incubated at 4° C.

GRG31 EPSP synthase [4] = assay type: biochemical
Description: The thermostability of several variants of GRG31 was analyzed by measuring survival of activity at 37° C.

BL21*DE3 cells = assay: Glyphosate growth screen on agar plates; assay type: cell-based, E. coli; conditions: 1×M63 minimal medium; 0.05 mM IPTG; expression construct pAX1945
From the text: A glyphosate growth screen was developed. […] Library 1 was cloned into pAX1945 between the MfeI and AlwN1 restriction sites.
Clone pAX3625 contains a grg31 variant having an in-frame stop codon that disrupts the GRG31 open reading frame.

[5] = extracts of point mutants, Table 8
[6] = extracts, separate experiment, Table 9

B1: 6b2: GRG31 variant N95→S, A206→V, SEQ ID NO:18 (protein)
chain: MNQQVITLTHPSKKIQGTVQLTGSKSESNRALIIQSLSKGQVEIANLSEAADTVTLNRVLQIASDPKPGFNTIDIGPAGTAMRFLTAYLNLVKGSFILTGTERMQQRPIGILVDAMKEIGADIHYDKKVGYPPLKIEGGLFQEKDRVKIKGNISSQYISALLLIAPALKKGLTLEIEGELTSRPYVSMTLDMLKSVGIQHEWKNNVIKIAPQAFEKQTIYVEPDWSAASYWYAIAALADANASIVLPGLRKNSLQGDIAIISIMEHFGVQSSFESDGLHLNKKVIGSDVSLFNFKECPDLAQTVVVVAAALKRDVSFTGLETLKIKETDRIAALQKEIAKFGAELIEDGDTYHLKTAQVYQPEEVTFDTYEDHRMAMAFAPLALVFDQIKIAEPQVVEKSYPDFWNHLQAQAFVIE
modifications: GRG31 variant (clone 6b2)
thermostability compared to wild-type GRG31 (GRG31 EPSP synthase [1]): increased thermostability
thermostability of extracts of error prone PCR clones (GRG31 EPSP synthase [2]): increased thermostability
Percent of Wt GRG31 activity (4 hrs at 37° C.) (GRG31 EPSP synthase [2]; [5]): 228%
Percent of Wt GRG31 activity (4 hrs at 37° C.) (GRG31 EPSP synthase [2]; [6]): 139%
Ki (GRG31 EPSP synthase [3]): 92 µM
Km (GRG31 EPSP synthase [3]): 6.5 µM
improvement in Km for PEP relative to GRG31 (GRG31 EPSP synthase [3]; relative to GRG31, in words): improved (lower)
Vmax (GRG31 EPSP synthase [3]): 34

B2: GRG31: native (wild-type) GRG31 EPSP synthase, SEQ ID NO:2 (protein)
chain: MNQQVITLTHPSKKIQGTVQLTGSKSESNRALIIQSLSKGQVEIANLSEAADTVTLNRVLQIASDPKPGFNTIDIGPAGTAMRFLTAYLNLVKGNFILTGTERMQQRPIGILVDAMKEIGADIHYDKKVGYPPLKIEGGLFQEKDRVKIKGNISSQYISALLLIAPALKKGLTLEIEGELTSRPYVSMTLDMLKSVGIQHEWKNNAIKIAPQAFEKQTIYVEPDWSAASYWYAIAALADANASIVLPGLRKNSLQGDIAIISIMEHFGVQSSFESDGLHLNKKVIGSDVSLFNFKECPDLAQTVVVVAAALKRDVSFTGLETLKIKETDRIAALQKEIAKFGAELIEDGDTYHLKTAQVYQPEEVTFDTYEDHRMAMAFAPLALVFDQIKIAEPQVVEKSYPDFWNHLQAQAFVIE
t1/2 at 37° C. (GRG31 EPSP synthase [4]): 2.7 h
glyphosate concentration of agar plates on which cells grow (BL21*DE3 cells): up to 50 mM
Ki (GRG31 EPSP synthase [3]): 73 µM
Km (GRG31 EPSP synthase [3]): 23 µM
Vmax (GRG31 EPSP synthase [3]): 29.3

B3: 6e7: GRG31 variant E215→K, SEQ ID NO:19 (protein)
chain: MNQQVITLTHPSKKIQGTVQLTGSKSESNRALIIQSLSKGQVEIANLSEAADTVTLNRVLQIASDPKPGFNTIDIGPAGTAMRFLTAYLNLVKGNFILTGTERMQQRPIGILVDAMKEIGADIHYDKKVGYPPLKIEGGLFQEKDRVKIKGNISSQYISALLLIAPALKKGLTLEIEGELTSRPYVSMTLDMLKSVGIQHEWKNNAIKIAPQAFKKQTIYVEPDWSAASYWYAIAALADANASIVLPGLRKNSLQGDIAIISIMEHFGVQSSFESDGLHLNKKVIGSDVSLFNFKECPDLAQTVVVVAAALKRDVSFTGLETLKIKETDRIAALQKEIAKFGAELIEDGDTYHLKTAQVYQPEEVTFDTYEDHRMAMAFAPLALVFDQIKIAEPQVVEKSYPDFWNHLQAQAFVIE
modifications: GRG31 variant (clone 6e7)
thermostability compared to wild-type GRG31 (GRG31 EPSP synthase [1]): increased thermostability
thermostability of extracts of error prone PCR clones (GRG31 EPSP synthase [2]): increased thermostability
Percent of Wt GRG31 activity (4 hrs at 37° C.) (GRG31 EPSP synthase [2]; [5]): 213%
Percent of Wt GRG31 activity (4 hrs at 37° C.) (GRG31 EPSP synthase [2]; [6]): 152%
Ki (GRG31 EPSP synthase [3]): 111 µM
Km (GRG31 EPSP synthase [3]): 3.4 µM
Vmax improvement over GRG31 (GRG31 EPSP synthase [3]; relative to GRG31): 2 fold
Vmax relative to GRG31 (GRG31 EPSP synthase [3]; relative to GRG31, in words): improved
improvement in Km for PEP relative to GRG31 (GRG31 EPSP synthase [3]; relative to GRG31, in words): improved (lower)
Vmax (GRG31 EPSP synthase [3]): 62
